Source: PMC4148193, “Chromatin Insulator Factors Involved in Long-Range DNA Interactions and Their Role in the Folding of the Drosophila Genome” (PLoS Genetics, 2014)

Target: T1, CP190 (Drosophila, UniProt Q24478 1-1096)
T1 sequence: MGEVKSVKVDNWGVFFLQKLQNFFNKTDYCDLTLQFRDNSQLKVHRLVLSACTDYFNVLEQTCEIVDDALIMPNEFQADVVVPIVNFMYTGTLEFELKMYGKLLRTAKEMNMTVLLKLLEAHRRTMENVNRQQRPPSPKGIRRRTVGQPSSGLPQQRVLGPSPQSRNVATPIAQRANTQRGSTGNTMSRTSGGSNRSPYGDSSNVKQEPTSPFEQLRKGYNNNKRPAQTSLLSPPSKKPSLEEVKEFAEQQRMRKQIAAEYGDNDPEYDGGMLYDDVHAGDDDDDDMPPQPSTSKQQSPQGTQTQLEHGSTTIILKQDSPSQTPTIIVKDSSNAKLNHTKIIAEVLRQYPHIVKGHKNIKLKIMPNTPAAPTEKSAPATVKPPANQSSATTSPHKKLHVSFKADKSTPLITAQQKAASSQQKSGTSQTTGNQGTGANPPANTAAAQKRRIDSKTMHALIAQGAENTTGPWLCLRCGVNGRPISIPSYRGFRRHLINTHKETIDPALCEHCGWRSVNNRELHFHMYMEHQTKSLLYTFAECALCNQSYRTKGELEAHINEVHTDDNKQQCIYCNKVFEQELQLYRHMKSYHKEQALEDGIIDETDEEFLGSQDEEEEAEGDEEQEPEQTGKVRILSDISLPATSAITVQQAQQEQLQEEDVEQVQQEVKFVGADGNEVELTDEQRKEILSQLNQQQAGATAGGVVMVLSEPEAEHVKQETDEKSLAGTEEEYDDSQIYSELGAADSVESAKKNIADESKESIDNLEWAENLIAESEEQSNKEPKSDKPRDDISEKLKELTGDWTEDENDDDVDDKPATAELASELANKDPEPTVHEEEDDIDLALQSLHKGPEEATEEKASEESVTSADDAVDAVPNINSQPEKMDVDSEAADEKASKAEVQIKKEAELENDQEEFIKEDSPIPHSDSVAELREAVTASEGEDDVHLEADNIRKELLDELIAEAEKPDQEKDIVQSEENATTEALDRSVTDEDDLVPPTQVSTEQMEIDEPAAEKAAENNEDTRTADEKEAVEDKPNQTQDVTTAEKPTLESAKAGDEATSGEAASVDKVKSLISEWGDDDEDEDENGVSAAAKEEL
Assay: competition; unlabeled DNAS vs 2.5 nM Cy3B-DNAS, 200 nM CP190; FA/FCS: 30 mM Tris/HCl pH 7.5, 100 mM NaCl, 20 uM ZnSO4, 5 mM mercaptoethanol, 0.01 mg/ml BSA, 0.004% Tween20, 2.5 nM DNA; EMSA: 150 mM NaCl, 30 mM Tris/HCl pH
Details: protein: recombinant; tags: N-term 6xHis; blunt

B1: DNAS (dsDNA)
DNA 1: AGAAGTCAGCGCGATAGCATCGATATTTTCGTGACACGCTTGTCATCCGATAGGTAGT
DNA 2: ACTACCTATCGGATGACAAGCGTGTCACGAAAATATCGATGCTATCGCGCTGACTTCT
Question: How did the Ki turn out when B1 was run?
Answer: The Ki was 17 ± 4 nM.
